From PMC2580030 (PLoS ONE, 2008)
Ends that are not written are not given here.

Molecular target: recombinant soluble empty (peptide free) HLA-DR1 (human)
Assay: fluorescence polarisation
Conditions: both partners purified

## {FAM}-PVSKMRMATPLLMQA [FAM-CLIP peptide (residues 87-101)]
  t1/2: ~1.33 h
